T1: FcγRIIa R (FcγRIIa allotype with Arg at position 131), extracellular domain with C-terminal His tag (human, UniProt P12318 34-217)
T1 construct: extracellular domain; made in FreeStyle293 cells; analyte in the Biacore assay; also called FcγRIIa type R; 2aR
T1 sequence (looked up): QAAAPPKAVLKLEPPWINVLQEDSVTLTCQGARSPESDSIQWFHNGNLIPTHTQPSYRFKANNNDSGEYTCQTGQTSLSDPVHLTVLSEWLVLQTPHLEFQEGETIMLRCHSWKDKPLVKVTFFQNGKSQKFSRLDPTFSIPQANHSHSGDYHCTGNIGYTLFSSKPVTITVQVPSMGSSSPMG

T2: FcγRIIb, extracellular domain with C-terminal His tag (human, UniProt P31994 43-217)
T2 construct: extracellular domain; made in FreeStyle293 cells; analyte in the Biacore assay; also called 2b; FcgRIIb
T2 sequence (looked up): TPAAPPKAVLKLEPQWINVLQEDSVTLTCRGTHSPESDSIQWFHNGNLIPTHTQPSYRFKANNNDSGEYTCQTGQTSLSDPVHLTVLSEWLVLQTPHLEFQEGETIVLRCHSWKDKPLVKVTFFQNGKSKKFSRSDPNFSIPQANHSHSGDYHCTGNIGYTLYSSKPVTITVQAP


Tests used:
[1] = biological target: T1, FcγRIIa R (FcγRIIa allotype with Arg at …); assay: SPR (Biacore), antibody captured, FcγR analyte; vs GpH7-A5/GpH7-B3/GpL16-k0 = 100
Experimental: (§1) The heterodimerized antibodies He Abs in which one of the H chains was introduced with an alteration were assayed for their binding activities to each activating FcγR and inhibitory FcγR according to the method described in Example 4. […] The activating FcγRs in FIGS. 26, 27, 28, and 29 are FcγRIa, FcγRIIa (R), FcγRIIa (H), and FcγRIIIa, respectively.
(§2) Analysis of interaction between objective antibody and the FcγR was carried out using Biacore T100 (GE Healthcare). HBS-EP+ (GE Healthcare) was used as the running buffer, and the measurement temperature was set to 25° C. Chips produced by immobilizing the antigen peptide by the amine coupling method to a Series S Sencor Chip CM5 (GE Healthcare), or alternatively, chips produced by allowing preliminarily biotinylated antigen peptides to interact with and immobilize onto a Series S Sensor Chip SA (certified) (GE Healthcare) were used. Antibodies of interest were captured onto an antigen peptide-immobilized chip, and allowed to interact to each FcγR diluted with running buffer. To regenerate and repeatedly use the chip, the antibodies captured on the chip were washed off by reacting 10 mM glycine-HCl, pH 1.5.

[2] = biological target: T2, FcγRIIb, extracellular domain with …; assay: as above
Experimental: as §1, §2

Row | He/Con_2aR [1] | He/Con_2b [2] | Binder
1 | 105 relative (HeCon Ab = 100) | 96.7 relative (HeCon Ab = 100) | GpH7-A5/GpH7-B3 variant S337_06M/GpL16-k0 (antibody, human IgG1, kappa, heterodimerized IgG1, mutation in one H chain only; also called He Ab) heavy 1: not shown heavy 2: not shown light: DIVMTQSPLSLPVTPGEPASISCQASESLVHSNRNTYLHWYLQKPGQSPQLLIYKVSNRFSGVPDRFSGSGSGTDFTLKISRVEAEDVGVYYCSQNTHVPPTFGQGTKVEIERTVAAPSVFIFPPSDEQLKSGTASVVCLLNNFYPREAKVQWKVDNALQSGNSQESVTEQDSKDSTYSLSSTLTLSKADYEKHKVYACEVTHQGLSSPVTKSFNRGEC
2 | 105 relative (HeCon Ab = 100) | 99.2 relative (HeCon Ab = 100) | GpH7-A5/GpH7-B3 variant P331_18N/GpL16-k0 (antibody, human IgG1, kappa, heterodimerized IgG1, mutation in one H chain only; also called He Ab) heavy 1: not shown heavy 2: not shown light: DIVMTQSPLSLPVTPGEPASISCQASESLVHSNRNTYLHWYLQKPGQSPQLLIYKVSNRFSGVPDRFSGSGSGTDFTLKISRVEAEDVGVYYCSQNTHVPPTFGQGTKVEIERTVAAPSVFIFPPSDEQLKSGTASVVCLLNNFYPREAKVQWKVDNALQSGNSQESVTEQDSKDSTYSLSSTLTLSKADYEKHKVYACEVTHQGLSSPVTKSFNRGEC
3 | 103 relative (HeCon Ab = 100) | 94.3 relative (HeCon Ab = 100) | GpH7-A5/GpH7-B3 variant S337_11K/GpL16-k0 (antibody, human IgG1, kappa, heterodimerized IgG1, mutation in one H chain only; also called He Ab) heavy 1: not shown heavy 2: not shown light: DIVMTQSPLSLPVTPGEPASISCQASESLVHSNRNTYLHWYLQKPGQSPQLLIYKVSNRFSGVPDRFSGSGSGTDFTLKISRVEAEDVGVYYCSQNTHVPPTFGQGTKVEIERTVAAPSVFIFPPSDEQLKSGTASVVCLLNNFYPREAKVQWKVDNALQSGNSQESVTEQDSKDSTYSLSSTLTLSKADYEKHKVYACEVTHQGLSSPVTKSFNRGEC
4 | 102 relative (HeCon Ab = 100) | 94.8 relative (HeCon Ab = 100) | GpH7-A5/GpH7-B3 variant Q295_10E/GpL16-k0 (antibody, human IgG1, kappa, heterodimerized IgG1, mutation in one H chain only; also called He Ab) heavy 1: not shown heavy 2: not shown light: DIVMTQSPLSLPVTPGEPASISCQASESLVHSNRNTYLHWYLQKPGQSPQLLIYKVSNRFSGVPDRFSGSGSGTDFTLKISRVEAEDVGVYYCSQNTHVPPTFGQGTKVEIERTVAAPSVFIFPPSDEQLKSGTASVVCLLNNFYPREAKVQWKVDNALQSGNSQESVTEQDSKDSTYSLSSTLTLSKADYEKHKVYACEVTHQGLSSPVTKSFNRGEC
5 | 104 relative (HeCon Ab = 100) | 99.8 relative (HeCon Ab = 100) | GpH7-A5/GpH7-B3 variant P331_14T/GpL16-k0 (antibody, human IgG1, kappa, heterodimerized IgG1, mutation in one H chain only; also called He Ab) heavy 1: not shown heavy 2: not shown light: DIVMTQSPLSLPVTPGEPASISCQASESLVHSNRNTYLHWYLQKPGQSPQLLIYKVSNRFSGVPDRFSGSGSGTDFTLKISRVEAEDVGVYYCSQNTHVPPTFGQGTKVEIERTVAAPSVFIFPPSDEQLKSGTASVVCLLNNFYPREAKVQWKVDNALQSGNSQESVTEQDSKDSTYSLSSTLTLSKADYEKHKVYACEVTHQGLSSPVTKSFNRGEC
6 | 105 relative (HeCon Ab = 100) | 96.8 relative (HeCon Ab = 100) | GpH7-A5/GpH7-B3 variant P331_13S/GpL16-k0 (antibody, human IgG1, kappa, heterodimerized IgG1, mutation in one H chain only; also called He Ab) heavy 1: not shown heavy 2: not shown light: DIVMTQSPLSLPVTPGEPASISCQASESLVHSNRNTYLHWYLQKPGQSPQLLIYKVSNRFSGVPDRFSGSGSGTDFTLKISRVEAEDVGVYYCSQNTHVPPTFGQGTKVEIERTVAAPSVFIFPPSDEQLKSGTASVVCLLNNFYPREAKVQWKVDNALQSGNSQESVTEQDSKDSTYSLSSTLTLSKADYEKHKVYACEVTHQGLSSPVTKSFNRGEC
7 | 103 relative (HeCon Ab = 100) | 97.3 relative (HeCon Ab = 100) | GpH7-A5/GpH7-B3 variant S239_14T/GpL16-k0 (antibody, human IgG1, kappa, heterodimerized IgG1, mutation in one H chain only; also called He Ab) heavy 1: not shown heavy 2: not shown light: DIVMTQSPLSLPVTPGEPASISCQASESLVHSNRNTYLHWYLQKPGQSPQLLIYKVSNRFSGVPDRFSGSGSGTDFTLKISRVEAEDVGVYYCSQNTHVPPTFGQGTKVEIERTVAAPSVFIFPPSDEQLKSGTASVVCLLNNFYPREAKVQWKVDNALQSGNSQESVTEQDSKDSTYSLSSTLTLSKADYEKHKVYACEVTHQGLSSPVTKSFNRGEC
8 | 106 relative (HeCon Ab = 100) | 99.7 relative (HeCon Ab = 100) | GpH7-A5/GpH7-B3 variant S337_19Q/GpL16-k0 (antibody, human IgG1, kappa, heterodimerized IgG1, mutation in one H chain only; also called He Ab) heavy 1: not shown heavy 2: not shown light: DIVMTQSPLSLPVTPGEPASISCQASESLVHSNRNTYLHWYLQKPGQSPQLLIYKVSNRFSGVPDRFSGSGSGTDFTLKISRVEAEDVGVYYCSQNTHVPPTFGQGTKVEIERTVAAPSVFIFPPSDEQLKSGTASVVCLLNNFYPREAKVQWKVDNALQSGNSQESVTEQDSKDSTYSLSSTLTLSKADYEKHKVYACEVTHQGLSSPVTKSFNRGEC
9 | 102 relative (HeCon Ab = 100) | 95.7 relative (HeCon Ab = 100) | GpH7-A5/GpH7-B3 variant P331_08L/GpL16-k0 (antibody, human IgG1, kappa, heterodimerized IgG1, mutation in one H chain only; also called He Ab) heavy 1: not shown heavy 2: not shown light: DIVMTQSPLSLPVTPGEPASISCQASESLVHSNRNTYLHWYLQKPGQSPQLLIYKVSNRFSGVPDRFSGSGSGTDFTLKISRVEAEDVGVYYCSQNTHVPPTFGQGTKVEIERTVAAPSVFIFPPSDEQLKSGTASVVCLLNNFYPREAKVQWKVDNALQSGNSQESVTEQDSKDSTYSLSSTLTLSKADYEKHKVYACEVTHQGLSSPVTKSFNRGEC

— patent publication US20150344570A1 (published 2015)
